T1: FcγRIIa(R) (human, UniProt P12318 34-217)
T1 construct: extracellular domain; also called FcγRIIa R type; 2aR
T1 sequence: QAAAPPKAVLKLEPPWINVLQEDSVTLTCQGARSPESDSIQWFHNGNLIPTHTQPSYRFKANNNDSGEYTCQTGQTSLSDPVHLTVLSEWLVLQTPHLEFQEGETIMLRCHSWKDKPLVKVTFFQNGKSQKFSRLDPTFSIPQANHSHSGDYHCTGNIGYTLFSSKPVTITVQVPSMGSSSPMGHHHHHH

T2: FcγRIIa(H) (human, UniProt P12318 34-217)
T2 construct: extracellular domain; also called FcγRIIa H type; 2aH
T2 sequence: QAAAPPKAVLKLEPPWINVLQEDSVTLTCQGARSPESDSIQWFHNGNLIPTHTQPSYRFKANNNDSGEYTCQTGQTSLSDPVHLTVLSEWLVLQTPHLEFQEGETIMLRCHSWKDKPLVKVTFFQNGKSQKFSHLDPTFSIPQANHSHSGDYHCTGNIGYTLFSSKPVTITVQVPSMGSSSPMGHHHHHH

T3: FcγRIIb (human, UniProt P31994 43-217)
T3 construct: extracellular domain; also called 2b
T3 sequence: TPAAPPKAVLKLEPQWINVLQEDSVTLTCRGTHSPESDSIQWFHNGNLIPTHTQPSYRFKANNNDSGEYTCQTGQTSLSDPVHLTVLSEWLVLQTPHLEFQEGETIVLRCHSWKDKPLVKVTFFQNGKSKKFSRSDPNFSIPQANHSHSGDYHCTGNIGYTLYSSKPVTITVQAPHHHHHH


Legend:
Test in all cases: SPR (Biacore), binding relative to GpH7-A5/GpH7-B3/GpL16-k0 x100;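 note: surface plasmon resonance at 25 °C, antibody captured on a sensor chip and soluble FcγR flowed over it in HBS-EP+ running buffer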
FcγRIa = molecular target: T4, FcγRIa (human, UniProt P12314 16-292)
T4 construct: extracellular domain; also called 1a
T4 sequence (P12314 other isoform, or with tags, fused parts or gaps): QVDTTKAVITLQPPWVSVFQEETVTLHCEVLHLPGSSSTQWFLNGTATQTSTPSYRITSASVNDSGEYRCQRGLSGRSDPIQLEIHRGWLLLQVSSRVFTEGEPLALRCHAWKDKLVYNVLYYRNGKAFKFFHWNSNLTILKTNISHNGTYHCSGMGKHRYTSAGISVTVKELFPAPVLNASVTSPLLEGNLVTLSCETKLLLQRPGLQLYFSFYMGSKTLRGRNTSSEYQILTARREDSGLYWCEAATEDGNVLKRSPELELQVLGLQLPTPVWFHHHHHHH
Procedure: (§1) The antibody of interest was analyzed for its interaction with FcγR using a BiaCore™ T100, BiaCore™ A100, or BiaCore™ 4000 surface plasmon resonance system (GE Healthcare Japan Corp.). The running buffer used was HBS-EP+ (GE Healthcare Japan Corp.). The assay temperature was set to 25° C. The sensor chips used were: a chip prepared by immobilizing antigenic peptides onto Series S Sensor Chip CM5 (GE Healthcare Japan Corp.) by the amine coupling method; a chip prepared by immobilizing antigenic peptides biotinylated in advance onto Series S Sensor Chip SA (certified) (GE Healthcare Japan Corp.) through their interaction; a chip prepared by immobilizing protein L (ACTIGEN, BioVision, Inc.) onto Series S Sensor Chip CM5 (GE Healthcare Japan Corp.); and a chip prepared by immobilizing protein A/G (Thermo Fisher Scientific K.K.) onto Series S Sensor Chip CM5 (GE Healthcare Japan Corp.). The antibody of interest was captured onto any of these chips and allowed to interact with FcγR diluted with a running buffer. The antibody captured on the chip was washed off through the reaction of 10 mM glycine-HCl (pH 1.5) to regenerate the chip, which was repetitively used.

FcγRIIa(R) = molecular target: T1, FcγRIIa(R)
Procedure: as §1

FcγRIIa(H) = molecular target: T2, FcγRIIa(H)
Procedure: as §1

FcγRIIb = molecular target: T3, FcγRIIb
Procedure: as §1

Binder | He/Con 1a (FcγRIa) [%] | He/Con 2aR (FcγRIIa(R)) [%] | He/Con 2aH (FcγRIIa(H)) [%] | He/Con 2b (FcγRIIb) [%]
GpH7-A5/GpH7-B3 variant P238_10E/GpL16-k0 (antibody, human IgG1, kappa, heterodimerized IgG1, one H chain mutated; also called He Ab) heavy 1: not shown heavy 2: not shown light: DIVMTQSPLSLPVTPGEPASISCQASESLVHSNRNTYLHWYLQKPGQSPQLLIYKVSNRFSGVPDRFSGSGSGTDFTLKISRVEAEDVGVYYCSQNTHVPPTFGQGTKVEIERTVAAPSVFIFPPSDEQLKSGTASVVCLLNNFYPREAKVQWKVDNALQSGNSQESVTEQDSKDSTYSLSSTLTLSKADYEKHKVYACEVTHQGLSSPVTKSFNRGEC | 105 | 142 | 74.6 | 235
GpH7-A5/GpH7-B3 variant S239_10E/GpL16-k0 (antibody, human IgG1, kappa, heterodimerized IgG1, one H chain mutated; also called He Ab) heavy 1: not shown heavy 2: not shown light: DIVMTQSPLSLPVTPGEPASISCQASESLVHSNRNTYLHWYLQKPGQSPQLLIYKVSNRFSGVPDRFSGSGSGTDFTLKISRVEAEDVGVYYCSQNTHVPPTFGQGTKVEIERTVAAPSVFIFPPSDEQLKSGTASVVCLLNNFYPREAKVQWKVDNALQSGNSQESVTEQDSKDSTYSLSSTLTLSKADYEKHKVYACEVTHQGLSSPVTKSFNRGEC | 108 | 127 | 108 | 183
GpH7-A5/GpH7-B3 variant S239_06M/GpL16-k0 (antibody, human IgG1, kappa, heterodimerized IgG1, one H chain mutated; also called He Ab) heavy 1: not shown heavy 2: not shown light: DIVMTQSPLSLPVTPGEPASISCQASESLVHSNRNTYLHWYLQKPGQSPQLLIYKVSNRFSGVPDRFSGSGSGTDFTLKISRVEAEDVGVYYCSQNTHVPPTFGQGTKVEIERTVAAPSVFIFPPSDEQLKSGTASVVCLLNNFYPREAKVQWKVDNALQSGNSQESVTEQDSKDSTYSLSSTLTLSKADYEKHKVYACEVTHQGLSSPVTKSFNRGEC | 102 | 94.7 | 95.4 | 102
GpH7-A5/GpH7-B3 variant S239_08L/GpL16-k0 (antibody, human IgG1, kappa, heterodimerized IgG1, one H chain mutated; also called He Ab) heavy 1: not shown heavy 2: not shown light: DIVMTQSPLSLPVTPGEPASISCQASESLVHSNRNTYLHWYLQKPGQSPQLLIYKVSNRFSGVPDRFSGSGSGTDFTLKISRVEAEDVGVYYCSQNTHVPPTFGQGTKVEIERTVAAPSVFIFPPSDEQLKSGTASVVCLLNNFYPREAKVQWKVDNALQSGNSQESVTEQDSKDSTYSLSSTLTLSKADYEKHKVYACEVTHQGLSSPVTKSFNRGEC | 103 | 114 | 101 | 142
GpH7-A5/GpH7-B3 variant P271_04F/GpL16-k0 (antibody, human IgG1, kappa, heterodimerized IgG1, one H chain mutated; also called He Ab) heavy 1: not shown heavy 2: not shown light: DIVMTQSPLSLPVTPGEPASISCQASESLVHSNRNTYLHWYLQKPGQSPQLLIYKVSNRFSGVPDRFSGSGSGTDFTLKISRVEAEDVGVYYCSQNTHVPPTFGQGTKVEIERTVAAPSVFIFPPSDEQLKSGTASVVCLLNNFYPREAKVQWKVDNALQSGNSQESVTEQDSKDSTYSLSSTLTLSKADYEKHKVYACEVTHQGLSSPVTKSFNRGEC | 100 | 75.2 | 77.1 | 66.7
GpH7-A5/GpH7-B3 variant S239_03V/GpL16-k0 (antibody, human IgG1, kappa, heterodimerized IgG1, one H chain mutated; also called He Ab) heavy 1: not shown heavy 2: not shown light: DIVMTQSPLSLPVTPGEPASISCQASESLVHSNRNTYLHWYLQKPGQSPQLLIYKVSNRFSGVPDRFSGSGSGTDFTLKISRVEAEDVGVYYCSQNTHVPPTFGQGTKVEIERTVAAPSVFIFPPSDEQLKSGTASVVCLLNNFYPREAKVQWKVDNALQSGNSQESVTEQDSKDSTYSLSSTLTLSKADYEKHKVYACEVTHQGLSSPVTKSFNRGEC | 98.9 | 94.1 | 88 | 110
GpH7-A5/GpH7-B3 variant S239_09D/GpL16-k0 (antibody, human IgG1, kappa, heterodimerized IgG1, one H chain mutated; also called He Ab) heavy 1: not shown heavy 2: not shown light: DIVMTQSPLSLPVTPGEPASISCQASESLVHSNRNTYLHWYLQKPGQSPQLLIYKVSNRFSGVPDRFSGSGSGTDFTLKISRVEAEDVGVYYCSQNTHVPPTFGQGTKVEIERTVAAPSVFIFPPSDEQLKSGTASVVCLLNNFYPREAKVQWKVDNALQSGNSQESVTEQDSKDSTYSLSSTLTLSKADYEKHKVYACEVTHQGLSSPVTKSFNRGEC | 104 | 129 | 111 | 209
GpH7-A5/GpH7-B3 variant P271_14T/GpL16-k0 (antibody, human IgG1, kappa, heterodimerized IgG1, one H chain mutated; also called He Ab) heavy 1: not shown heavy 2: not shown light: DIVMTQSPLSLPVTPGEPASISCQASESLVHSNRNTYLHWYLQKPGQSPQLLIYKVSNRFSGVPDRFSGSGSGTDFTLKISRVEAEDVGVYYCSQNTHVPPTFGQGTKVEIERTVAAPSVFIFPPSDEQLKSGTASVVCLLNNFYPREAKVQWKVDNALQSGNSQESVTEQDSKDSTYSLSSTLTLSKADYEKHKVYACEVTHQGLSSPVTKSFNRGEC | 101 | 94.7 | 69.8 | 107
GpH7-A5/GpH7-B3 variant P271_15Y/GpL16-k0 (antibody, human IgG1, kappa, heterodimerized IgG1, one H chain mutated; also called He Ab) heavy 1: not shown heavy 2: not shown light: DIVMTQSPLSLPVTPGEPASISCQASESLVHSNRNTYLHWYLQKPGQSPQLLIYKVSNRFSGVPDRFSGSGSGTDFTLKISRVEAEDVGVYYCSQNTHVPPTFGQGTKVEIERTVAAPSVFIFPPSDEQLKSGTASVVCLLNNFYPREAKVQWKVDNALQSGNSQESVTEQDSKDSTYSLSSTLTLSKADYEKHKVYACEVTHQGLSSPVTKSFNRGEC | 101 | 70 | 74 | 58.6
GpH7-A5/GpH7-B3 variant S239_02A/GpL16-k0 (antibody, human IgG1, kappa, heterodimerized IgG1, one H chain mutated; also called He Ab) heavy 1: not shown heavy 2: not shown light: DIVMTQSPLSLPVTPGEPASISCQASESLVHSNRNTYLHWYLQKPGQSPQLLIYKVSNRFSGVPDRFSGSGSGTDFTLKISRVEAEDVGVYYCSQNTHVPPTFGQGTKVEIERTVAAPSVFIFPPSDEQLKSGTASVVCLLNNFYPREAKVQWKVDNALQSGNSQESVTEQDSKDSTYSLSSTLTLSKADYEKHKVYACEVTHQGLSSPVTKSFNRGEC | 103 | 89.8 | 89.9 | 91.6
GpH7-A5/GpH7-B3 variant P238_15Y/GpL16-k0 (antibody, human IgG1, kappa, heterodimerized IgG1, one H chain mutated; also called He Ab) heavy 1: not shown heavy 2: not shown light: DIVMTQSPLSLPVTPGEPASISCQASESLVHSNRNTYLHWYLQKPGQSPQLLIYKVSNRFSGVPDRFSGSGSGTDFTLKISRVEAEDVGVYYCSQNTHVPPTFGQGTKVEIERTVAAPSVFIFPPSDEQLKSGTASVVCLLNNFYPREAKVQWKVDNALQSGNSQESVTEQDSKDSTYSLSSTLTLSKADYEKHKVYACEVTHQGLSSPVTKSFNRGEC | 104 | 147 | 57.8 | 221
GpH7-A5/GpH7-B3 variant S239_07I/GpL16-k0 (antibody, human IgG1, kappa, heterodimerized IgG1, one H chain mutated; also called He Ab) heavy 1: not shown heavy 2: not shown light: DIVMTQSPLSLPVTPGEPASISCQASESLVHSNRNTYLHWYLQKPGQSPQLLIYKVSNRFSGVPDRFSGSGSGTDFTLKISRVEAEDVGVYYCSQNTHVPPTFGQGTKVEIERTVAAPSVFIFPPSDEQLKSGTASVVCLLNNFYPREAKVQWKVDNALQSGNSQESVTEQDSKDSTYSLSSTLTLSKADYEKHKVYACEVTHQGLSSPVTKSFNRGEC | 101 | 95.9 | 88.5 | 108
GpH7-A5/GpH7-B3 variant P271_16H/GpL16-k0 (antibody, human IgG1, kappa, heterodimerized IgG1, one H chain mutated; also called He Ab) heavy 1: not shown heavy 2: not shown light: DIVMTQSPLSLPVTPGEPASISCQASESLVHSNRNTYLHWYLQKPGQSPQLLIYKVSNRFSGVPDRFSGSGSGTDFTLKISRVEAEDVGVYYCSQNTHVPPTFGQGTKVEIERTVAAPSVFIFPPSDEQLKSGTASVVCLLNNFYPREAKVQWKVDNALQSGNSQESVTEQDSKDSTYSLSSTLTLSKADYEKHKVYACEVTHQGLSSPVTKSFNRGEC | 100 | 79 | 76.4 | 76.2
GpH7-A5/GpH7-B3 variant S239_01G/GpL16-k0 (antibody, human IgG1, kappa, heterodimerized IgG1, one H chain mutated; also called He Ab) heavy 1: not shown heavy 2: not shown light: DIVMTQSPLSLPVTPGEPASISCQASESLVHSNRNTYLHWYLQKPGQSPQLLIYKVSNRFSGVPDRFSGSGSGTDFTLKISRVEAEDVGVYYCSQNTHVPPTFGQGTKVEIERTVAAPSVFIFPPSDEQLKSGTASVVCLLNNFYPREAKVQWKVDNALQSGNSQESVTEQDSKDSTYSLSSTLTLSKADYEKHKVYACEVTHQGLSSPVTKSFNRGEC | 104 | 120 | 93.8 | 146
GpH7-A5/GpH7-B3 variant P238_19Q/GpL16-k0 (antibody, human IgG1, kappa, heterodimerized IgG1, one H chain mutated; also called He Ab) heavy 1: not shown heavy 2: not shown light: DIVMTQSPLSLPVTPGEPASISCQASESLVHSNRNTYLHWYLQKPGQSPQLLIYKVSNRFSGVPDRFSGSGSGTDFTLKISRVEAEDVGVYYCSQNTHVPPTFGQGTKVEIERTVAAPSVFIFPPSDEQLKSGTASVVCLLNNFYPREAKVQWKVDNALQSGNSQESVTEQDSKDSTYSLSSTLTLSKADYEKHKVYACEVTHQGLSSPVTKSFNRGEC | 101 | 97.8 | 54.5 | 112
